Measurements taken from publication PMC10070186 (2023).

Columns and labels:
CgnE [1] = biological target: T1, CgnE (Chondromyces crocatus CM c5); assay: MST
T1 chain: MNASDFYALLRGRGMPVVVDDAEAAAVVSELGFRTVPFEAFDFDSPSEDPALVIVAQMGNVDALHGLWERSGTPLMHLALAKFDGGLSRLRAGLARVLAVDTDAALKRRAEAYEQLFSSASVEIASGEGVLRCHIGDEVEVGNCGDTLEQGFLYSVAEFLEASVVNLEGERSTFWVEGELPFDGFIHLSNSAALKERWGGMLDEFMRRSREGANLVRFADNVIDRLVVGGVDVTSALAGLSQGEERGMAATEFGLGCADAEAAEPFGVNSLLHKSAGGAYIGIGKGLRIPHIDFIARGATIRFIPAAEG

CgnE [2] = biological target: T1, CgnE; assay: CgnE titrated
CgnE [3] = biological target: T1, CgnE; assay: MST; CgnA at constant high concentration
[4] = biological target: T2, CgnB in the presence of CgnA (400 µM) (Chondromyces crocatus CM c5); assay: CgnA present with CgnC, CgnB titrated
T2 chain: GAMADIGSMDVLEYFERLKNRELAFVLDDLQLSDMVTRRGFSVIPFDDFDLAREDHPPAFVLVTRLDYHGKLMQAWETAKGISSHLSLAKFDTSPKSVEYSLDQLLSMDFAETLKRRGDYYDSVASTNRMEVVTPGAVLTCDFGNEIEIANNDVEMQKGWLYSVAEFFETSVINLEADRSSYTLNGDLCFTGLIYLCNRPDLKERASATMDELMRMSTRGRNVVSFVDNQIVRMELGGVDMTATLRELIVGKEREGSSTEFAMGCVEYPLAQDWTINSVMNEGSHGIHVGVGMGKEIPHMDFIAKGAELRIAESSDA

[5] = biological target: T3, CgnE in the presence of CgnA (400 µM) (Chondromyces crocatus CM c5); assay: CgnA present with CgnC, CgnE titrated
T3 chain: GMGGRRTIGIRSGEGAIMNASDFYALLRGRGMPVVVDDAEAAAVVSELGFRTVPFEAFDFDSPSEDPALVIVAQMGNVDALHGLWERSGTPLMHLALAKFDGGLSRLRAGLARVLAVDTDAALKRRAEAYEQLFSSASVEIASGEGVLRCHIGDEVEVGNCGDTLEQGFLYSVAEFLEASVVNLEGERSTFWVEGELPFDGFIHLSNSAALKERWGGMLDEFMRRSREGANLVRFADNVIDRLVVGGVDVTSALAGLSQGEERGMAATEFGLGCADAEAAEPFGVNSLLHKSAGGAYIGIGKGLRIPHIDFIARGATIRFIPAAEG

CgnC = biological target: T4, CgnC (Chondromyces crocatus CM c5); assay: MST; CgnA at constant high concentration
T4 chain: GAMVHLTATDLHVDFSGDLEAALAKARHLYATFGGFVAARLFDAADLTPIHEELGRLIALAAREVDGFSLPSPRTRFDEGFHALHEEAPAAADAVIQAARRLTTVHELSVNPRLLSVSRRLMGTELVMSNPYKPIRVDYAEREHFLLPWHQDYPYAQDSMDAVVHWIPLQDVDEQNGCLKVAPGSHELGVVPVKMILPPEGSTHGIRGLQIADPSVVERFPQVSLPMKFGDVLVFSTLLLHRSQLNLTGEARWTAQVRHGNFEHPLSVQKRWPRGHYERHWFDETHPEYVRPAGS

CgnB = biological target: T5, CgnB (Chondromyces crocatus CM c5); assay: MST
T5 chain: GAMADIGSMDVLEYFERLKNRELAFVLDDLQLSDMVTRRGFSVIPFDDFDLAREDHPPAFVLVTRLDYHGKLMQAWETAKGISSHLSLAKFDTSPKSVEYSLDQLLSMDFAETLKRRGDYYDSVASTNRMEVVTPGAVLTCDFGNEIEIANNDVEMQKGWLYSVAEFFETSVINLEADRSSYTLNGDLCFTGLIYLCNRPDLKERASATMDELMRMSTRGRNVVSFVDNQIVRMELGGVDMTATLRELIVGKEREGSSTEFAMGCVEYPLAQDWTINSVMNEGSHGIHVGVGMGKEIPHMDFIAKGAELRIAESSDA

B1: CgnC (enzyme)
chain: GAMVHLTATDLHVDFSGDLEAALAKARHLYATFGGFVAARLFDAADLTPIHEELGRLIALAAREVDGFSLPSPRTRFDEGFHALHEEAPAAADAVIQAARRLTTVHELSVNPRLLSVSRRLMGTELVMSNPYKPIRVDYAEREHFLLPWHQDYPYAQDSMDAVVHWIPLQDVDEQNGCLKVAPGSHELGVVPVKMILPPEGSTHGIRGLQIADPSVVERFPQVSLPMKFGDVLVFSTLLLHRSQLNLTGEARWTAQVRHGNFEHPLSVQKRWPRGHYERHWFDETHPEYVRPAGS
modifications: sequence from Supplementary Table 8 (the excerpt mark inside it is read as contiguous); N-terminal GA is a cloning remnant; dimer by size-exclusion chromatography
Kd (CgnE [1]): 1100 nM | Kd (CgnE [2]): 1100 nM | Kd (CgnE [3]): 900 nM | Kd [4]: 110 nM | Kd [5]: 900 nM

B2: CgnB in the presence of CgnA (400 µM) (complex)
chain: GAMADIGSMDVLEYFERLKNRELAFVLDDLQLSDMVTRRGFSVIPFDDFDLAREDHPPAFVLVTRLDYHGKLMQAWETAKGISSHLSLAKFDTSPKSVEYSLDQLLSMDFAETLKRRGDYYDSVASTNRMEVVTPGAVLTCDFGNEIEIANNDVEMQKGWLYSVAEFFETSVINLEADRSSYTLNGDLCFTGLIYLCNRPDLKERASATMDELMRMSTRGRNVVSFVDNQIVRMELGGVDMTATLRELIVGKEREGSSTEFAMGCVEYPLAQDWTINSVMNEGSHGIHVGVGMGKEIPHMDFIAKGAELRIAESSDA
modifications: sequence from Supplementary Table 8 (the excerpt mark inside it is read as contiguous); N-terminal GA is a cloning remnant; dimer by size-exclusion chromatography
Kd (CgnC): 110 nM

MKKTIKQISAGDRSKKGN [CgnA leader peptide (CgnA^LP)]
Kd (CgnB): 78.2 µM
